Among the data in patent EP3083697B1 are OD405 and percent of the OD405 of wild type ENO1 values, retold here.

Experiment [1] deals with ENO1 deletion mutant Δ1-189 (human) (UniProt P06733). Description: ELISA, mutant protein coated, 10 microgram EN10 mAb. (An ELISA detects its analyte on a solid surface through an enzyme-linked reagent.)
Experiment [2] deals with ENO1 deletion mutant Δ1-297 (human) (UniProt P06733). The experiment is described as above.

B1: EN10 mAb (antibody, V domains shown)
VH: EVQLQQSGPELVKPGASVKMSCKASGYTFTSCVMNWVKQKPGQGLEWIGYINPYNDGTKYNEKFKGKATLTSDKSSSTAYMELSSLTSEDSAVYYCAREGFYYGNFDNWGQGTTLTVSS
VL: DIQMTQSPASLSASVGETVTITCRASENIYSYLTWYQQKQGKSPQLLVYNAKTLPEGVPSRFSGSGSGTQFSLKINSLQPEDFGSYYCQHHYGTPYTFGGGTKLEITR
In experiment [1], B1 came in with an OD405 of 1.43 OD405 and a percent of the OD405 of wild type ENO1 of 42%. In experiment [2], this molecule returned an OD405 of 1.56 OD405 and a percent of the OD405 of wild type ENO1 of 39%.
